From patent US20210363269A1 (ALX ONCOLOGY, published 2021)

T1: BALB/c mouse SIRP-α D1 domain (mouse (BALB/c strain))
T1 chain: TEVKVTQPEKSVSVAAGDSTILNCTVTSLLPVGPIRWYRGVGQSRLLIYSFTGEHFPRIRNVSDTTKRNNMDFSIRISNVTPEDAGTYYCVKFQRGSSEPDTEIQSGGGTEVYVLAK

T2: C57BL/6 mouse SIRP-α D1 domain (mouse (C57BL/6 strain), UniProt P97797 32-148)
T2 sequence: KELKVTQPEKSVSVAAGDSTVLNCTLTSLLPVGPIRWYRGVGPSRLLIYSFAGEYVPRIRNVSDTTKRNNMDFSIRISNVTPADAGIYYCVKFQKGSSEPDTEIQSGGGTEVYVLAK

T3: mouse 129 SIRP-α D1 domain (mouse (129 strain), UniProt P97797 32-150)
T3 construct: also called m129
T3 chain: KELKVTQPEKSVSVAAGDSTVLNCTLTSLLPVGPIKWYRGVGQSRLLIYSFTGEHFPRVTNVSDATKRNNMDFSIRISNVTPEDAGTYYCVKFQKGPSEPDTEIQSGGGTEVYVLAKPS

T4: NOD mouse SIRP-α D1 domain (mouse (NOD strain))
T4 chain: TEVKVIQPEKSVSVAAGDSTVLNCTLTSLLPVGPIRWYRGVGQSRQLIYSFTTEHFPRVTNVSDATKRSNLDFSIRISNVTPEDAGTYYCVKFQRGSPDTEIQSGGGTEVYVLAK

T5: BALBc mouse SIRP-α (mouse (BALB/c strain))
T5 chain: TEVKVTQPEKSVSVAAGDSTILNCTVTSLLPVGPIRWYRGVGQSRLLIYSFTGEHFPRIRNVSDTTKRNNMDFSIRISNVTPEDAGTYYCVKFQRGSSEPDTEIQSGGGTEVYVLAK

T6: BL6 mouse SIRP-α (mouse (C57BL/6 strain), UniProt P97797 32-148)
T6 construct: also called C57BL/6
T6 sequence: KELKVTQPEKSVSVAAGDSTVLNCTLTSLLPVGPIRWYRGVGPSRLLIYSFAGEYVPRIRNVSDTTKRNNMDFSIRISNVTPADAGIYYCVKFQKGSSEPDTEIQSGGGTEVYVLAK

T7: NOD mouse SIRP-α (mouse (NOD strain))
T7 chain: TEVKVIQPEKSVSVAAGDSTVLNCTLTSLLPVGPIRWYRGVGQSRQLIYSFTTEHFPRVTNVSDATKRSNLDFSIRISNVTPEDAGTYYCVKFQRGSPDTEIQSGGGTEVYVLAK


What was measured:
[1] = target: T1, BALB/c mouse SIRP-α D1 domain; test: SPR, ProteOn, antibody on chip
Protocol: (§1) All experiments were performed at 25° C. using a SPR-based ProteOn XPR36 biosensor (BioRad, Inc, Hercules, Calif.) equipped with GLC or NLC sensor chips. […] Purification was carried out by standard Protein A affinity column chromatography and eluted antibodies were stored in PBS buffer.
(§2) The running buffer was PBS pH 7.4 with 0.01% Tween-20 (PBST+). All analytes were used at their nominal concentrations as determined by A280 Absorbance and using their molar calculated extinction coefficient.
(§3) For the method using GLC chip, the analytes were injected and flowed over anti-SIRPα antibodies immobilized (˜1000 RUs) on GLC chips using Proteon™ Amine Coupling Kit. For the immobilization step, GLC chip was activated with EDAC/Sulpho-NHS 1:1 (Biorad) diluted 1/100 for 300 s at 25 μL/min. Anti-SIRPα antibodies were diluted to 80 nM concentration in 10 mM sodium acetate buffer pH 4.5 and immobilized to the chip at 30 μL/min for 50 s. Chip was inactivated with ethanolamine for 300 s at 25 μL/min. The analytes (e.g., SIRP-α from different species, SIRP-β, SIRP-γ) were injected in a “one-shot” kinetic mode at nominal concentrations of 100, 33, 11, 3.7, 1.2 and 0 nM. Association times were monitored for 90 s at 100 μL/min, and dissociation times were monitored for 1200 s. The surfaces were regenerated with a 2:1 v/v blend of Pierce IgG elution buffer/4M NaCl.

[2] = target: T2, C57BL/6 mouse SIRP-α D1 domain; test: SPR, ProteOn, antibody on chip
Protocol: as §1, §2, §3

[3] = target: T3, mouse 129 SIRP-α D1 domain; test: SPR, ProteOn, antibody on chip
Protocol: as §1, §3
(§4) Next, the binding kinetics of various antibody clones to selected mouse SIRP-α proteins were determined as described above. Mouse proteins that were tested include BALBc (SEQ ID NO:10), BL6 (SEQ ID NO:9), NOD (SEQ ID NO:8), and m129 (SEQ ID NO:7) SIRP-α proteins. Antibody clones labeled as “c” were tested as full-length mouse IgG2a antibodies; antibody clones labeled as “a” were tested as full-length human IgG1 antibodies with L234A, L235A, G237A, and N297A mutations.

[4] = target: T4, NOD mouse SIRP-α D1 domain; test: SPR, ProteOn, antibody on chip
Protocol: as §1, §3, §4

human SIRPγ isoform 1 = target: T8, human SIRPγ isoform 1 (human, UniProt Q9P1W8 29-147); test: SPR, antibody on GLC chip
T8 construct: also called Gamma; Human SIRPg
Procedure, shortened: (§5)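 Protein A-purified antibodies were diluted to 80 nM in 10 mM sodium acetate pH 4.5 and amine-coupled (~1000 RU) to a GLC chip of a ProteOn XPR36 biosensor. SIRP analytes were injected one-shot at 100, 33, 11, 3.7, 1.2 and 0 nM in PBS pH 7.4 with 0.01% Tween-20 at 25° C. Association ran 90 s at 100 μL/min and dissociation 1200 s. KD came from double-referenced data fitted globally to a Langmuir model, as kd/ka.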

BALBc mouse SIRP-α = target: T5, BALBc mouse SIRP-α; test: SPR, antibody on GLC chip
Procedure, shortened: as §5

human SIRP-α v2 = target: T9, human SIRP-α v2 (human); test: SPR, antibody on GLC chip
T9 construct: also called Human v2; Human V2
Procedure, shortened: as §5

human SIRP-α v1 = target: T10, human SIRP-α v1 (human, UniProt P78324 31-149); test: SPR, antibody on GLC chip
T10 construct: also called Human v1; Human V1
Procedure, shortened: as §5

BL6 mouse SIRP-α = target: T6, BL6 mouse SIRP-α; test: SPR, antibody on GLC chip
Procedure, shortened: as §5

NOD mouse SIRP-α = target: T7, NOD mouse SIRP-α; test: SPR, antibody on GLC chip
Procedure, shortened: as §5

T10 sequence (P78324 31-149 limits assumed): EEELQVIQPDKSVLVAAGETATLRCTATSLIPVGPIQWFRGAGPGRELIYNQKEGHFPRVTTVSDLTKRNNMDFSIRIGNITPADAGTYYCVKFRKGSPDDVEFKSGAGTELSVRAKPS
T8 sequence (Q9P1W8 29-147 limits assumed): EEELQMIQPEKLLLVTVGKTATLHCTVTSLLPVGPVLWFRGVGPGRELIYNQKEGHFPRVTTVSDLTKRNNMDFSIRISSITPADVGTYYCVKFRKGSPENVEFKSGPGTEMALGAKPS
T9 sequence (chain, as listed by the source limits assumed): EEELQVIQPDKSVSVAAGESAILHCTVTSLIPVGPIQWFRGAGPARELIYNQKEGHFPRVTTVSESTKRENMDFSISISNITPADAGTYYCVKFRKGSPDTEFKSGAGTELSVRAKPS

Row | Kd [1] [nM] | koff [1] [s⁻¹] | kon [1] [M⁻¹ s⁻¹] | Kd [2] [nM] | koff [2] [s⁻¹] | kon [2] [M⁻¹ s⁻¹] | Kd [3] [nM] | koff [3] [s⁻¹] | kon [3] [M⁻¹ s⁻¹] | Kd [4] [nM] | koff [4] [s⁻¹] | kon [4] [M⁻¹ s⁻¹] | Kd (human SIRPγ isoform 1) [nM] | Kd (BALBc mouse SIRP-α) [nM] | Kd (human SIRP-α v2) [nM] | Kd (human SIRP-α v1) [nM] | Kd (BL6 mouse SIRP-α) [nM] | Kd (NOD mouse SIRP-α) [nM] | Binder
1 |  |  |  |  |  |  |  |  |  |  |  |  | 66.7 | 2.09 | 10.5 | 4.88 | 16.3 | 2.85 | antibody 136 variant, light chain Mut_S12T / heavy chain Mut (antibody, V domains shown) VH: EVQLVESGGGVVQPGRSLRLSCAASGFTFSSYDVNWVRQAPGKGLEWVSLISGSGEIIYYADSVKGRFTISRDNSKNTLYLQMNSLRAEDTAVYYCAKENNRYRFFDDWGQGTLVTVSS VL: EIVLTQSPGTLTLSPGERATLSCRASQSVYTYLAWYQQKPGQAPRLLIYGASSRATGIPDRFSGSGSGTEFTLTISSLQSEDFAVYYCQQYYDRPPLTFGGGTKVEIK
2 |  |  |  |  |  |  |  |  |  |  |  |  | 61.7 | 1.64 | 8.28 | 4.99 | 13.3 | 2.44 | antibody 136 variant, light chain Mut_S22T / heavy chain Mut (antibody, V domains shown) VH: EVQLVESGGGVVQPGRSLRLSCAASGFTFSSYDVNWVRQAPGKGLEWVSLISGSGEIIYYADSVKGRFTISRDNSKNTLYLQMNSLRAEDTAVYYCAKENNRYRFFDDWGQGTLVTVSS VL: EIVLTQSPGTLSLSPGERATLTCRASQSVYTYLAWYQQKPGQAPRLLIYGASSRATGIPDRFSGSGSGTEFTLTISSLQSEDFAVYYCQQYYDRPPLTFGGGTKVEIK
3 |  |  |  |  |  |  |  |  |  |  |  |  | 19.3 | 2.98 | 12.5 | 6.18 | 33.1 | 5.98 | antibody 136 variant, light chain Mut_Q38E / heavy chain Mut (antibody, V domains shown) VH: EVQLVESGGGVVQPGRSLRLSCAASGFTFSSYDVNWVRQAPGKGLEWVSLISGSGEIIYYADSVKGRFTISRDNSKNTLYLQMNSLRAEDTAVYYCAKENNRYRFFDDWGQGTLVTVSS VL: EIVLTQSPGTLSLSPGERATLSCRASQSVYTYLAWYQEKPGQAPRLLIYGASSRATGIPDRFSGSGSGTEFTLTISSLQSEDFAVYYCQQYYDRPPLTFGGGTKVEIK

Second part, the binder before the results:

Row | Binder | Kd [1] [nM] | koff [1] [s⁻¹] | kon [1] [M⁻¹ s⁻¹] | Kd [2] [nM] | koff [2] [s⁻¹] | kon [2] [M⁻¹ s⁻¹] | Kd [3] [nM] | koff [3] [s⁻¹] | kon [3] [M⁻¹ s⁻¹] | Kd [4] [nM] | koff [4] [s⁻¹] | kon [4] [M⁻¹ s⁻¹] | Kd (human SIRPγ isoform 1) [nM] | Kd (BALBc mouse SIRP-α) [nM] | Kd (human SIRP-α v2) [nM] | Kd (human SIRP-α v1) [nM] | Kd (BL6 mouse SIRP-α) [nM] | Kd (NOD mouse SIRP-α) [nM]
4 | AB21c (antibody, mouse IgG2a, V domains shown, Full-length mouse IgG2a) VH: DVQLVESGGGVVRPGESLRLSCAASGFTFSSNAMSWVRQAPGKGLEWLAGISAGGSDTYYPASVKGRFTISRDNSKNTLYLQMNTLTAEDTAVYYCARETWNHLFDYWGLGTLVTVSS VL: ALTQPASVSANPGETVKIACSGGDYYSYYYGWYQQKAPGSALVTVIYSDDKRPSDIPSRFSGSASGSTATLTITGVRAEDEAVYYCGGYDYSTYANAFGAGTTLTVL | 1.34 | 0.000618 | 462000 | 0.876 | 0.000241 | 276000 | 0.0588 | 3.31e-05 | 563000 | 0.64 | 0.000479 | 749000 |  |  |  |  |  | 
5 | AB66c (antibody, mouse IgG2a, V domains shown, Full-length mouse IgG2a) VH: DVQLVESGGGVVRPGESLRLSCAASGFTFSSYAMSWVRQAPGKGLEWLAGISAGGSDTYYIDSVKGRFTISRDNPKNSLYLQMSSLTAEDTAVYYCARETWNHLFDYWGLGTLVTVSS VL: ALTQPASVSANPGETVKITCSGGDYYSTYYAWYQQKSPGSAPVTVIHSDDKRPSDIPSRFSGSASGSAATLIITGVRVEDEAVYYCGGYDGRTYINTFGAGTTLTVL | 3.41 | 0.000762 | 224000 | 5.8 | 0.000619 | 107000 | 0.0955 | 1.98e-05 | 207000 | 0.564 | 0.000232 | 412000 |  |  |  |  |  | 
6 | antibody 136 variant, light chain Mut / heavy chain wt (antibody, V domains shown) VH: not shown VL: EIVLTQSPGTLSLSPGERATLSCRASQSVYTYLAWYQQKPGQAPRLLIYGASSRATGIPDRFSGSGSGTEFTLTISSLQSEDFAVYYCQQYYDRPPLTFGGGTKVEIK |  |  |  |  |  |  |  |  |  |  |  |  | 19.6 | 2.8 | 17.4 | 7.28 | 32.6 | 4.12
7 | antibody 136 variant, light chain Mut / heavy chain Mut (antibody, V domains shown) VH: EVQLVESGGGVVQPGRSLRLSCAASGFTFSSYDVNWVRQAPGKGLEWVSLISGSGEIIYYADSVKGRFTISRDNSKNTLYLQMNSLRAEDTAVYYCAKENNRYRFFDDWGQGTLVTVSS VL: EIVLTQSPGTLSLSPGERATLSCRASQSVYTYLAWYQQKPGQAPRLLIYGASSRATGIPDRFSGSGSGTEFTLTISSLQSEDFAVYYCQQYYDRPPLTFGGGTKVEIK |  |  |  |  |  |  |  |  |  |  |  |  | 1.68 | 3.14 | 19.5 | 7.29 | 31.7 | 5.21
8 | AB25c (antibody, mouse IgG2a, V domains shown, Full-length mouse IgG2a) VH: DVQLVESGGGVVRPGESLRLSCEASGFTFSSNAMSWVRQAPGKGLEWVAGISSGSDTYYGDSVKGRLTISRDNSKNILYLQMNSLTAEDTAVYYCARETWNHLFDYWGLGTLVTVSS VL: ALTQPASVSANPGETVEITCSGGSYSSYYYAWYQQKSPGSAPVTLIYSDDKRPSNIPSRFSGSASGSTATLTITGVRAEDEAVYFCGGYDQSSYTNPFGAGTTLTVL | 9.64 | 0.00292 | 303000 | 2.81 | 0.000399 | 142000 | 0.0587 | 2.07e-05 | 352000 | 3.9 | 0.00143 | 366000 |  |  |  |  |  | 
9 | AB27c (antibody, mouse IgG2a, V domains shown, Full-length mouse IgG2a) VH: DVQLVESGGGVVRPGESLRLSCAVSGFRFSSYAMSWVRQAPGKGLEWVSGISSGGDTYYVDSVKGRFTISRDNSKNTLYLQVNSLTAEDTAIYYCARETWNHLFDYWGLGTLVTVSS VL: ALTQPASVSADLGETVKITCSGGDSSSHYYGWYQQKSPGSAPVTVIYSDDERPSDIPSRFSGSASGSTATLTITGVRVEDEAIYYCGAYDGSTYANTFGAGTTLTVL | 15 | 0.00226 | 150000 | 9.49 | 0.0014 | 147000 | 0.487 | 0.000101 | 207000 | 3.42 | 0.00101 | 296000 |  |  |  |  |  | 
